Here are results for 2 molecules from publication PMC3136132.

Data set [1] addresses T1, FMRP (UniProt Q06787 1-632). Nature of the data set: biotin-RNA affinity capture; 2 uM RNA; 50 mM Tris-HCl pH 7.4, 2 mM MgCl2, 150 mM KCl, 1 mM EDTA, 1 mM DTT (Schaeffer buffer without tRNA, supplemented with 125 mM NaCl); SoftLink avidin resin; temper.
Data set [2] concerns the target T1, FMRP. As to the kind of experiment: biotin-RNA affinity capture; 2 uM RNA; slightly less than full-length BC1, P=.15; 50 mM Tris-HCl pH 7.4, 2 mM MgCl2, 150 mM KCl, 1 mM EDTA, 1 mM DTT (Schaeffer buffer without tRNA, supplemented with 125 mM NaCl); SoftLink avidin resin; temper.

B1: 3'BC1-60 RNA, annealed (structured_RNA)
RNA: AAAAAAGACAAAAUAACAAAAAGACCAAAAAAAAAACAAGGUAACUGGCACACACAACCUUU
On to B1, for which, in the data set with FMRP [1], the binding result is “no binding”.

B2: 5'BC1-75 RNA, annealed (structured_RNA)
RNA: GGGGUUGGGGAUUUAGCUCAGUGGUAGAGCGCUUGCCUAGCAAGCGCAAGGCCCUGGGUUCGGUCCUCAGCUCU
As to B2, in the data set with FMRP [2], the binding result is recorded as “binds”.
